# According to patent US20240067751A1 (KEYMED BIOSCIENCES, published 2024):
# Changes are numbered by the printed parent chain.
# B1: h16B11 H2K2 (antibody, V domains shown)
# VH: QLQLQESGPGLVKPSETLSLTCTVSGYSITSDYAWNWIRQPPGKGLEWIGYISYSGRTSYNPSLKSRVTISRDTSKNQFSLKLSSVTAADTAVYYCARHYGDYWGQGTLVTVSS
# VL: DIQMTQSPSSLSASVGDRVTITCRASQNVGTNVAWYQQKPGKAPKLLIYSASYRESGVPSRFSGSGSGTDFTLTISSLQPEDFATYFCQQFNTNPLTFGGGTKVEIK
# B2: h16B11 H3K3 (antibody, V domains shown)
# VH: B1 VH with R72V
# VL: B1 VL with L46A, E55Q
# B3: h16B11 H3K1 (antibody, V domains shown)
# VH: B1 VH with R72V
# VL: B1 VL with L46A
# B4: h16B11 H2K3 (antibody, V domains shown)
# VH: B1 VH
# VL: B1 VL with L46A, E55Q
# B5: h16B11 H3K2 (antibody, V domains shown)
# VH: B1 VH with R72V
# VL: B1 VL
# B6: chimeric antibody 10L3 (antibody, V domains shown)
# VH: DVQLQESGPGLVKPSQSLSLTCTVTGYSITSDYAWNWIRQFPGNKLEWMGYISYSGRTSYNPSLKSRISITRDTSKNQFFLQLNSVTTEDTATYYCAKLGGGHGMDYWGQGTSVTVSS
# VL: IVMTQSQKFMSTSVGDRVSVTCKASQNVDTNVAWYQQKPGQSPKALIYSASYRYSGVPDRFTGSGSGTDFTLTISNVQSEDLAEYFCLQYNSYLTFGSGTKLELK
# B7: chimeric antibody 1B2 (antibody, V domains shown)
# VH: DVQLQESGPGLVKPSQSLSLTCTVTGYSITSDYAWNWIRQFSGDKLEWMGYISYSGSTSYNPSLKSRISITRDTSKNQFFLHLSSVTTEDTATYFCARYWGDYWGHGTTLTVSS
# VL: DSVMTQSQKFMSTSVGDRVSVTCKASHNVGTNVAWFQQKPGQSPKGLIYSASYRSSGVPDRFTGSGSGTDFTLTISNVQSEDLAEYFCLQYNSNPLTFGGGTKLEVK
# B8: chimeric antibody 16A17 (antibody, V domains shown)
# VH: DVQLQESGPGLVKPSQSLSLTCTVTGYSITSDYAWKWIRQFPGNKLEWMGYISYSGSTSYHPSLKGRISITRDTSKNQFFLQLNSVTADDTATYYCAILGYYAMDYWGQGTSVTVSS
# VL: DIVMTQSQKFMSTSVGDRVSITCKASQNVRVDVAWYQQKSGQSPRALIYLASNRHTGVPDRFTGSGSGTDFTLTITNVQSEDLADYFCPQHWSYPLTFGGGTKLEIK
# B9: chimeric antibody 4F18 (antibody, V domains shown)
# VH: EVQLQESGPGLVKPSQSLSLACTVTGYSITSDYAWHWIRQFPGNKLEWMGFISYSGRTNYNPPLTSRISITRDTSKNQFFLQLNSVTTEDTATYYCARSYDYWFGYWGQGTLVTVSA
# VL: NVLMTQTPLSLPVSLGDQASISCRSSQSLVHSNGNTYLEWYMQKPGQSPKLLIYTVSRRFSGVPDRFSGSGSGTDFTLKISRVEAEDLGVYYCFQGSHVPVTFGAGTKLELK
# notes: to be rechecked
# Biological target: T1, MASP-2 in human serum (human, UniProt O00187 16-686)
# T1 sequence (O00187 16-686 limits assumed): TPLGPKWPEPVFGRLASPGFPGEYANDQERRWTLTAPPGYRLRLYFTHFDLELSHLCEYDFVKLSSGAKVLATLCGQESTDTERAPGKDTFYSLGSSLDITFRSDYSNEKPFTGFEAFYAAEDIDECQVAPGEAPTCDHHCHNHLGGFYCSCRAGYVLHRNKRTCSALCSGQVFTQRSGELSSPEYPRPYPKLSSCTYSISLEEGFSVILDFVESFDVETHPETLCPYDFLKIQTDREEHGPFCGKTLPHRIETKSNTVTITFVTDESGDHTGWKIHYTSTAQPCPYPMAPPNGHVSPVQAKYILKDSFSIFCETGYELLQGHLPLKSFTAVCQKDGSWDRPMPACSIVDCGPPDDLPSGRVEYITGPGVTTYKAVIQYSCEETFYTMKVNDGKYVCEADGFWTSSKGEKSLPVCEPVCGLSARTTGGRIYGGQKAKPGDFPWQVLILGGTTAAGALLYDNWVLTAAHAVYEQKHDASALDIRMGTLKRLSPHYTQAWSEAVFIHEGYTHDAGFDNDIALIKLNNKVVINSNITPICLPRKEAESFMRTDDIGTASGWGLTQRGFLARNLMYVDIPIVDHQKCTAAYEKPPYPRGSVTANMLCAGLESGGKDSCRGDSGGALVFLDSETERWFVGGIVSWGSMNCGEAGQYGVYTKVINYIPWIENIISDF
# Assay: cell-based or functional assay
row,"IC50, inhibition of C4b deposition",Binder
1,0.032 nM,B1
2,0.44 nM,B2
3,0.098 nM,B3
4,0.012 nM,B4
5,1.69 nM,B5

# Biological target: T2, mouse MASP-2 D4-6 recombinant protein (mouse, UniProt Q91WP0 298-685)
# T2 construct: Made 'similarly' to the human protein (N-terminal his6 tag)
# T2 sequence (Q91WP0 other isoform, or with tags, fused parts or gaps limits assumed): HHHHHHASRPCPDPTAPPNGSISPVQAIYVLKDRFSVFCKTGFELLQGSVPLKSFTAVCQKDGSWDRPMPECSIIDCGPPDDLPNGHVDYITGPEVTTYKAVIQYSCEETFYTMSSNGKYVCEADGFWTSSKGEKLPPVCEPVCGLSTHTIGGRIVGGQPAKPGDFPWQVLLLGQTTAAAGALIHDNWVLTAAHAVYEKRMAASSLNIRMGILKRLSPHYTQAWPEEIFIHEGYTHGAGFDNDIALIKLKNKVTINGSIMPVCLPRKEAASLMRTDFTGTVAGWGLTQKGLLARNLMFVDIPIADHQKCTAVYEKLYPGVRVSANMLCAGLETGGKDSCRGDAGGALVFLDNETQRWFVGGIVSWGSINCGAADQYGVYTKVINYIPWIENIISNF
# Assay: ELISA, antigen coated, chimeric IgG titrated, anti-human Fc-HRP
row,EC50,Binder
1,30.9 nM,B6
2,0.947 nM,B7
3,1.97 nM,B8
4,0.287 nM,B9

# Biological target: T3, Cynomolgus monkey MASP-2 D4-6 recombinant protein (Cynomolgus monkey, UniProt O00187 298-686 (human entry), limits assumed)
# T3 construct: Made 'similarly' to the human protein (N-terminal his6 tag)
# T3 sequence (O00187 other isoform, or with tags, fused parts or gaps limits assumed): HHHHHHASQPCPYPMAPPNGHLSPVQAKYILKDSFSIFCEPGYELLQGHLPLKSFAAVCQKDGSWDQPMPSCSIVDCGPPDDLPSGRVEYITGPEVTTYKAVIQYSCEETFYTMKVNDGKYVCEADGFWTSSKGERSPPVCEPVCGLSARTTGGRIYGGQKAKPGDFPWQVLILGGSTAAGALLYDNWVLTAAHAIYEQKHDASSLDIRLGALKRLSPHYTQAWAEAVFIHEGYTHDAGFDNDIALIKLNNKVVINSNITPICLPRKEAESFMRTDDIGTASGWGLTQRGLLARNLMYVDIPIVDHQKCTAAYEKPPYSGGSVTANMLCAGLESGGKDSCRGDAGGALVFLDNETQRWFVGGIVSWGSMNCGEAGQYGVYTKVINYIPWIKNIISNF
# Assay: as above
row,EC50,Binder
1,0.016 nM,B6
2,0.014 nM,B7
3,0.014 nM,B8
4,0.003 nM,B9

# Biological target: T4, rat MASP-2 D4-6 recombinant protein (rat, UniProt Q9JJS8 298-685)
# T4 construct: Made 'similarly' to the human protein (N-terminal his6 tag)
# T4 sequence (Q9JJS8 other isoform, or with tags, fused parts or gaps limits assumed): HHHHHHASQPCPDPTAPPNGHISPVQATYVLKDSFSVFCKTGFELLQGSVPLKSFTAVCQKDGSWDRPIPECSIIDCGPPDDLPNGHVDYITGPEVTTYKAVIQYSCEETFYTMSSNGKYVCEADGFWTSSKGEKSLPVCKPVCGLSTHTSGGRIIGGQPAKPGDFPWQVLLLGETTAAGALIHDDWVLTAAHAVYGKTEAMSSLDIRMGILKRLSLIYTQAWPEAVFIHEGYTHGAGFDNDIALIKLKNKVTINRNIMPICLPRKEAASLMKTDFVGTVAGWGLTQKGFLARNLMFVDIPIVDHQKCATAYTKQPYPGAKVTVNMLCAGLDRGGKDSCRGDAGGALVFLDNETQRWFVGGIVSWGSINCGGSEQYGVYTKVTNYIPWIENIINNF
# Assay: as above
row,EC50,Binder
1,30.2 nM,B6
2,1.44 nM,B7
3,4.3 nM,B8

# Biological target: T5, human MASP-2 D4-6 recombinant protein (human, UniProt O00187 298-686)
# T5 construct: his6 tag fused at the N-terminus, made in HEK293E; also called enzymatic activity domains CCP1-CCP2-SP of human MASP-2
# T5 sequence (O00187 other isoform, or with tags, fused parts or gaps limits assumed): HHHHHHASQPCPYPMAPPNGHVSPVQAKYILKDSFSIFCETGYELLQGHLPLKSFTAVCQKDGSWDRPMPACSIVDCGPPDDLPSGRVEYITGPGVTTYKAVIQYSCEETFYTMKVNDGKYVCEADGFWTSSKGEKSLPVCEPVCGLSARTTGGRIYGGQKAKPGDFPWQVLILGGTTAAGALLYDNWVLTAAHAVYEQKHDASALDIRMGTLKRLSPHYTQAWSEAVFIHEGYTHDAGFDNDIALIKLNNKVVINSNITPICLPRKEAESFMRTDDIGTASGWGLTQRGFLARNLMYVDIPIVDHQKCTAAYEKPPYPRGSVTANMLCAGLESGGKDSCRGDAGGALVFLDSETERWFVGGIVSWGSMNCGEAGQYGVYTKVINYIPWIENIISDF
# Assay: as above
row,EC50,Binder
1,0.022 nM,B6
2,0.015 nM,B7
3,0.014 nM,B8
4,0.004 nM,B9

# Biological target: T2, mouse MASP-2 D4-6 recombinant protein
# Assay: SPR Biacore T200, antibody on Protein A chip, antigen as analyte, 1:1 fit
# Method: (§1) Surface plasmon resonance technology (SPR/Biacore T200) was used to capture 0.1 μg/ml of the antibody on the surface of the Protein A chip, with a capture time of 40 seconds and a flow rate of 10 μl/min. The chip was washed with buffer until the baseline leveled off, then gradient-diluted antigen was flowed through the chip at the flow rate of 30 μl/min, with a binding time of 120 sec and a dissociation time of 600 sec. The equilibrium dissociation constant (KD) was obtained by fitting in Langmuir 1:1 kinetics mode.
row,Kd,Binder
1,214 nM,B6
2,632 nM,B7
3,487 nM,B8
4,218 nM,B9

# Biological target: T3, Cynomolgus monkey MASP-2 D4-6 …
# Assay: as above
# Method: as §1
row,Kd,Binder
1,1.29 nM,B6
2,0.078 nM,B7
3,0.063 nM,B8
4,24.8 nM,B9

# Biological target: T5, human MASP-2 D4-6 recombinant protein
# Assay: as above
# Method: as §1
row,Kd,Binder
1,0.07 nM,B6
2,0.002 nM,B7
3,0.008 nM,B8
4,0.108 nM,B9

# Biological target: T1, MASP-2 in human serum
# Assay: cell-based or functional assay
# Remark: another data set of the same source
row,"IC50, inhibition of C3b deposition",Binder
1,0.028 nM,B1
2,0.112 nM,B2
3,0.06 nM,B3
4,0.018 nM,B4
5,0.399 nM,B5
